Measured values taken from patent CN116178550A (BEIJING DONGFANG BIOTECH CO LTD, dated 2023).

Legend:
LILRA4 [1] = molecular target: T1, LILRA4 (UniProt P59901 24-446, limits assumed); test: ELISA, protein coated 100 ng/well, Goat Anti-Mouse IgG-HRP
LILRA1 [2] = molecular target: T2, LILRA1 (UniProt O75019 17-461, limits assumed); test: as above
LILRB1 [3] = molecular target: T3, LILRB1 (UniProt Q8NHL6 24-461, limits assumed); test: as above
LILRA2 [4] = molecular target: T4, LILRA2 (UniProt Q8N149 24-449, limits assumed); test: as above
LILRA3 [5] = molecular target: T5, LILRA3 (UniProt Q8N6C8 24-439); test: as above
LILRB5 [6] = molecular target: T6, LILRB5 (UniProt O75023 24-458, limits assumed); test: as above
LILRB3 [7] = molecular target: T7, LILRB3 (UniProt O75022 24-443, limits assumed); test: as above
LILRA5 [8] = molecular target: T8, LILRA5 (UniProt A6NI73 42-268, limits assumed); test: as above
LILRA6 [9] = molecular target: T9, LILRA6 (UniProt Q6PI73 24-447, limits assumed); test: as above
LILRB2 [10] = molecular target: T10, LILRB2 (UniProt Q8N423 22-460, limits assumed); test: as above
[11] = molecular target: T11, 人单核细胞白血病细胞(THP-1)表面LILRB4 (human, UniProt Q8NHJ6 22-448); test: cell-based or functional assay
[12] = molecular target: T11, 人单核细胞白血病细胞(THP-1)表面LILRB4; test: flow cytometry on THP-1 cells, competition with 0.4 μg/mL FITC-labelled ApoE
LILRB4抗原 (人LILRB4蛋白胞外段) [13] = molecular target: T12, LILRB4抗原 (人LILRB4蛋白胞外段) (human, UniProt Q8NHJ6 22-259); test: ELISA, LILRB4 coated 100 ng/well, Goat Anti-Mouse IgG-HRP
T12 construct: extracellular domain; also called 白细胞免疫球蛋白样受体亚家族B成员4

LILRA4 [14] = molecular target: T1, LILRA4; test: ELISA, protein coated 100 ng/well, MF-I at 50 μg/mL
LILRA1 [15] = molecular target: T2, LILRA1; test: as above
LILRB1 [16] = molecular target: T3, LILRB1; test: as above
LILRA2 [17] = molecular target: T4, LILRA2; test: as above
LILRA3 [18] = molecular target: T5, LILRA3; test: as above
LILRB5 [19] = molecular target: T6, LILRB5; test: as above
LILRB3 [20] = molecular target: T7, LILRB3; test: as above
LILRA5 [21] = molecular target: T8, LILRA5; test: as above
LILRA6 [22] = molecular target: T9, LILRA6; test: as above
LILRB4抗原 (人LILRB4蛋白胞外段) [23] = molecular target: T12, LILRB4抗原 (人LILRB4蛋白胞外段); test: as above
LILRB2 [24] = molecular target: T10, LILRB2; test: as above

T3 sequence (Q8NHL6 24-461 limits assumed): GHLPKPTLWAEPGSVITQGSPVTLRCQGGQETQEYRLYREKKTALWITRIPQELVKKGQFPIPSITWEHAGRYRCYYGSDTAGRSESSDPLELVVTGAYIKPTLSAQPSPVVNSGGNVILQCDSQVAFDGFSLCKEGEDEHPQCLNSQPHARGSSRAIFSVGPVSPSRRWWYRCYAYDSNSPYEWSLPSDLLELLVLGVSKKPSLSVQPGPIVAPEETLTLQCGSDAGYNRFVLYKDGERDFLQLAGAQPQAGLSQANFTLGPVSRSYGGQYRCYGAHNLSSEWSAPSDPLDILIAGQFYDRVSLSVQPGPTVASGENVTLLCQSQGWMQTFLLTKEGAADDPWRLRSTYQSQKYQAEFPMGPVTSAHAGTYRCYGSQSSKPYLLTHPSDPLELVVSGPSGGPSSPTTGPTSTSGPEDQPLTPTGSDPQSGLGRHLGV
T10 sequence (Q8N423 22-460 limits assumed): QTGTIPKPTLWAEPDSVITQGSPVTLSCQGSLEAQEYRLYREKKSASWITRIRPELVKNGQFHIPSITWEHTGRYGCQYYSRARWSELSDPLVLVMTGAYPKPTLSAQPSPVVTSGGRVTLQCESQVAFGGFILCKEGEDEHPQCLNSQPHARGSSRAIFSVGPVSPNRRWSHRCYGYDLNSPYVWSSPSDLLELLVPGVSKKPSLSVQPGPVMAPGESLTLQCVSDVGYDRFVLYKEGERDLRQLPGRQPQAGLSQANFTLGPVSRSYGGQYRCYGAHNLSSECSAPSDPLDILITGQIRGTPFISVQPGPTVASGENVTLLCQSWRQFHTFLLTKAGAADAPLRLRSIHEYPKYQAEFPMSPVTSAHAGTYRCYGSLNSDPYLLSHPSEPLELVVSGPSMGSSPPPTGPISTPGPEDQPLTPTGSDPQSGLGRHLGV
T7 sequence (O75022 24-443 limits assumed): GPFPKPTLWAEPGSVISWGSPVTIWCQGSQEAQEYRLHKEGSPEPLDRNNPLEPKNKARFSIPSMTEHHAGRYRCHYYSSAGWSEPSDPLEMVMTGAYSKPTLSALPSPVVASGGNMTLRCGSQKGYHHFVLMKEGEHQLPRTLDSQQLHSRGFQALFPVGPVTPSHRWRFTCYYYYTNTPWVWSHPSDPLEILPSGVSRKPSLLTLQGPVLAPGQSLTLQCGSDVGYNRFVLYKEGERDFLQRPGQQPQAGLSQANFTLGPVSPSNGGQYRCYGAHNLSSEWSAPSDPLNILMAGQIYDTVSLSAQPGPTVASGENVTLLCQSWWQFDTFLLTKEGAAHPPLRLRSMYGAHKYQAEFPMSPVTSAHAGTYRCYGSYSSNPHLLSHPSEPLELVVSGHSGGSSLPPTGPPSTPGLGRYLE
T9 sequence (Q6PI73 24-447 limits assumed): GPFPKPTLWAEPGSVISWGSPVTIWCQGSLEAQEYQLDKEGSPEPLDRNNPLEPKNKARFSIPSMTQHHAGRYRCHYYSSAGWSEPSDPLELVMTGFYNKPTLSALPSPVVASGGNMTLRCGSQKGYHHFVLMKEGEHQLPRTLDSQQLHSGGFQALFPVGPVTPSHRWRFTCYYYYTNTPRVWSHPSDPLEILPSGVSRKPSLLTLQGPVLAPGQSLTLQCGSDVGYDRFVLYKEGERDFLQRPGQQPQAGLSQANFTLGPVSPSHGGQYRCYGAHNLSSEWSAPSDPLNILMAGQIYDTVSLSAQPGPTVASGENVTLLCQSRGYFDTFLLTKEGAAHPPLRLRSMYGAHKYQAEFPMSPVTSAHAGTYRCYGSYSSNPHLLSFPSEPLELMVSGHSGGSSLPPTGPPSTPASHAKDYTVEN
T6 sequence (O75023 24-458 limits assumed): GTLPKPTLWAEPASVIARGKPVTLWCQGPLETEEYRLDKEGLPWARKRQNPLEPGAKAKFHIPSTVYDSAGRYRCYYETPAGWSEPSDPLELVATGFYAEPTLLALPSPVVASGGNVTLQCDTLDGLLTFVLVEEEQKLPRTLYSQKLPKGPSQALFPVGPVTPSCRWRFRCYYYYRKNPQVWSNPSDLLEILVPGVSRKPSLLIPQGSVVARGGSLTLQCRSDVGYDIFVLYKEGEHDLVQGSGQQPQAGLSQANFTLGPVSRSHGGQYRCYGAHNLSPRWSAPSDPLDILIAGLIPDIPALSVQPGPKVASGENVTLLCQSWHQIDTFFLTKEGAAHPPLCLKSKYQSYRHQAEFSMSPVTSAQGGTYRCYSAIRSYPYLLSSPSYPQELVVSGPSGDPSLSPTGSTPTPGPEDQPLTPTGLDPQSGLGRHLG
T4 sequence (Q8N149 24-449 limits assumed): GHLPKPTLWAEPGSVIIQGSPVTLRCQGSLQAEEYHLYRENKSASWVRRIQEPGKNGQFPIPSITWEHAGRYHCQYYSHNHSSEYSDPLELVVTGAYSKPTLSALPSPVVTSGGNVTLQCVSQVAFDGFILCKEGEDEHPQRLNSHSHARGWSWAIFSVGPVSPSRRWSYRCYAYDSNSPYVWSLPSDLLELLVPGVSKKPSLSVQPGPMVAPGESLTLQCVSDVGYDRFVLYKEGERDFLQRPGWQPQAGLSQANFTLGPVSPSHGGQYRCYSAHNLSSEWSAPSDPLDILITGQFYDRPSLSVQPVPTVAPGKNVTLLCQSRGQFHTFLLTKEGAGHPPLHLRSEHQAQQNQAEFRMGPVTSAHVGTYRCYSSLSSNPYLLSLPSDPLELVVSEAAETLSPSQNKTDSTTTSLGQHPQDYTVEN
T1 sequence (P59901 24-446 limits assumed): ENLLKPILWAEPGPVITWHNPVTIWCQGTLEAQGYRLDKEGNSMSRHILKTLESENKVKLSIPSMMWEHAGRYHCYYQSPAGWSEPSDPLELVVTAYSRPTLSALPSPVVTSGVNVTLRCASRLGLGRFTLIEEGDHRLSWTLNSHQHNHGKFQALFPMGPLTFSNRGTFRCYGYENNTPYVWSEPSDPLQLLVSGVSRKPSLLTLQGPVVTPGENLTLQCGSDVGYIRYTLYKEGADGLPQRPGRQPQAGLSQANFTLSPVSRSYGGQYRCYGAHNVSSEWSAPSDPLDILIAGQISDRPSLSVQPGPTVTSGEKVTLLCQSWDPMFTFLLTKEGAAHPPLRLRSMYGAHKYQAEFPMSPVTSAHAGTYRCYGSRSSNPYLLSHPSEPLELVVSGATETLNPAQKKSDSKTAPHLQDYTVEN
T8 sequence (A6NI73 42-268 limits assumed): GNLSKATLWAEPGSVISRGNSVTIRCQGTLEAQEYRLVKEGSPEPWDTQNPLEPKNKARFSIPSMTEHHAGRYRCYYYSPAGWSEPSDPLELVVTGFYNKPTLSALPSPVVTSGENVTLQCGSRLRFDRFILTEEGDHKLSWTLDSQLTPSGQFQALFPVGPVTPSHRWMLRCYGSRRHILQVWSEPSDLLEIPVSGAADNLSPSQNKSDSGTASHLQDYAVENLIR
T5 sequence (Q8N6C8 24-439 limits assumed): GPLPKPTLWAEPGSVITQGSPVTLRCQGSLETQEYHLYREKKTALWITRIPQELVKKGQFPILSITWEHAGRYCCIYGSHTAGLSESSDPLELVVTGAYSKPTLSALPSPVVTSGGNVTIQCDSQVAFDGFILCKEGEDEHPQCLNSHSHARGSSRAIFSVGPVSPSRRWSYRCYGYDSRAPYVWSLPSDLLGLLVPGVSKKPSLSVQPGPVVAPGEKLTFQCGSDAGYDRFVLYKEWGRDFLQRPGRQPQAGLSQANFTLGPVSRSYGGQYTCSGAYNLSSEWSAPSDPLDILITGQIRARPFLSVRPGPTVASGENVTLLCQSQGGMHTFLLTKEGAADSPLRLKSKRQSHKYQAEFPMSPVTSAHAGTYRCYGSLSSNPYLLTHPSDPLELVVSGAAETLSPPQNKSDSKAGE
T2 sequence (O75019 17-461 limits assumed): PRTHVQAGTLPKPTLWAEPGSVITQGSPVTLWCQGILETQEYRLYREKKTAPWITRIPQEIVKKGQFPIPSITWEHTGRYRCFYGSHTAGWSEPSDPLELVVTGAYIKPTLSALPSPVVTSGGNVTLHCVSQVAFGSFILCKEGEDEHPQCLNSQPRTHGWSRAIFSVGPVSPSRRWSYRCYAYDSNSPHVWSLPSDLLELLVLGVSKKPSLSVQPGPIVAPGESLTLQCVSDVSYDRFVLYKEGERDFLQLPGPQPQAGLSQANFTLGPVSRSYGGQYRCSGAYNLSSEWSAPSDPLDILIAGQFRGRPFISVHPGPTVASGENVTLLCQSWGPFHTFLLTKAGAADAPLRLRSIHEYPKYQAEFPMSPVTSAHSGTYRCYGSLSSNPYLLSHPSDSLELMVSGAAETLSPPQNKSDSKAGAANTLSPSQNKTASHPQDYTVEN

B1: 抗LILRB4单克隆抗体MF-I (full antibody, mouse IgG1 heavy chain constant region and mouse Ck light chain constant region) (antibody, V domains shown)
VH: QVQLEQSGAELVKPGASVKLSCKASGYTFTNYWMHWVKQRHGQGLEWIGEINPSNGRTNYNEKFKTKATLTVDKSSSTAYMQLSSLTSEDSAVYYCAKNYRYDDWAMDYWGQGTSVTVSS
VL: DIVLTQSPSSMYASLGERVTITCKASEDINSYLSWFQQKPGKSPKTLIYRANRLVDGVPSRFSGSGSGQDYSLTISSLEYEDMGIYYCLQYDEIPPTFGAGTKLELKA
notes: also called MF-Ⅰ
binding result (LILRA4 [1]): no binding (tested: 50μg/mL) | binding result (LILRA1 [2]): no binding (tested: 50μg/mL) | binding result (LILRB1 [3]): no binding (tested: 50μg/mL) | binding result (LILRA2 [4]): no binding (tested: 50μg/mL) | binding result (LILRA3 [5]): no binding (tested: 50μg/mL) | binding result (LILRB5 [6]): no binding (tested: 50μg/mL) | binding result (LILRB3 [7]): no binding (tested: 50μg/mL) | binding result (LILRA5 [8]): no binding (tested: 50μg/mL) | binding result (LILRA6 [9]): no binding (tested: 50μg/mL) | binding result (LILRB2 [10]): no binding (tested: 50μg/mL) | IC50(μg/mL), 抑制THP-1分泌ARG1 (arginase activity in the supernatant, with 0.5 μg/mL ApoE) [11]: 367 µg/mL | IC50 [12]: 10.5 µg/mL | EC50 (LILRB4抗原 (人LILRB4蛋白胞外段) [13]): 0.406 µg/mL | OD 450nm/630nm (LILRA4 [14]): 0.014 | OD 450nm/630nm (LILRA1 [15]): 0.111 | OD 450nm/630nm (LILRB1 [16]): 0.123 | OD 450nm/630nm (LILRA2 [17]): 0.036 | OD 450nm/630nm (LILRA3 [18]): 0.064 | OD 450nm/630nm (LILRB5 [19]): 0.012 | OD 450nm/630nm (LILRB3 [20]): 0.18 | OD 450nm/630nm (LILRA5 [21]): 0.012 | OD 450nm/630nm (LILRA6 [22]): 0.112 | OD 450nm/630nm (LILRB4抗原 (人LILRB4蛋白胞外段) [23]): 2.3 | OD 450nm/630nm (LILRB2 [24]): 0.213
